{"source": "paper PMC5709738", "about": "(The EMBO Journal, 2017)", "key": {"[1]": {"target": "T1, full-length Ctf19-Mcm21 (K. lactis) (Kluyveromyces lactis, UniProt Q6CRN7 1-270; Q6CVQ9 1-293)", "T1 chain 1": "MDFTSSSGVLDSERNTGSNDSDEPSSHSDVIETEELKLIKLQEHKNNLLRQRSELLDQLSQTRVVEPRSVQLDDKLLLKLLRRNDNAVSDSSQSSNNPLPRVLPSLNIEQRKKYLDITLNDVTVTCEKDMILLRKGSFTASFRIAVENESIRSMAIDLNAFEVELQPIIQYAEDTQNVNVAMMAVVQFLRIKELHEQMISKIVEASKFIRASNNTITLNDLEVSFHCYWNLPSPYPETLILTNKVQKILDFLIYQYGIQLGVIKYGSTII", "T1 chain 2": "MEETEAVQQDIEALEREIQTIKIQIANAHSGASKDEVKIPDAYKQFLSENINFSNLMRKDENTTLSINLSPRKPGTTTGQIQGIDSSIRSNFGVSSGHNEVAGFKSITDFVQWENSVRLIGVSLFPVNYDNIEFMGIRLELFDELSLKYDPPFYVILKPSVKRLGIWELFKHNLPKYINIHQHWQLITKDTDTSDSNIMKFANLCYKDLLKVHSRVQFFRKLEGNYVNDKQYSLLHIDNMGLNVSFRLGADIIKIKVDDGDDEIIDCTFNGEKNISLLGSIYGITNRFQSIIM", "experiment": "MST"}, "[2]": {"target": "T2, Okp1 (K. lactis, full length) (Kluyveromyces lactis, UniProt Q6CJY0 1-383)", "T2 construct": "Okp1 (CENP-Q orthologue) of Kluyveromyces lactis; also called Okp1^CENP-Q; outer kinetochore protein 1; source: E. coli BL21 Rosetta 2(DE3)pLysS, co-expressed as COMA, purified", "T2 sequence (looked up)": "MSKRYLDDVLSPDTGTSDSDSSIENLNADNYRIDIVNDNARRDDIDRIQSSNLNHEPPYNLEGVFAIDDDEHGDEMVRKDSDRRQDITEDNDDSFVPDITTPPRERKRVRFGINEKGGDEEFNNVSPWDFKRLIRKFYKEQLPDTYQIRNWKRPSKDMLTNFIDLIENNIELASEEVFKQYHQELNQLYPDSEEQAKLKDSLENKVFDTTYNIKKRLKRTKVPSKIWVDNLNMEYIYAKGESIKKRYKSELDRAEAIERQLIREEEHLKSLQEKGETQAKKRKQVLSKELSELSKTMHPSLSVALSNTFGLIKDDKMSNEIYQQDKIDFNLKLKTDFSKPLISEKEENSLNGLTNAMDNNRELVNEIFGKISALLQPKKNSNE", "experiment": "native MS; nanoflow spectra and tandem mode with collision-induced dissociation in the gas phase (argon); subassemblies stripped of subunits", "conditions": "both partners purified"}, "[3]": {"target": "T3, Ame1-Okp1 (K. lactis, full length) (Kluyveromyces lactis, UniProt Q6CUE5 1-292; Q6CJY0 1-383)", "T3 construct": "Ame1 of Kluyveromyces lactis; Okp1 of Kluyveromyces lactis; stands as the Ame1-Okp1 part of COMA; also called Okp1-Ame1; source: E. coli BL21 Rosetta 2(DE3)pLysS, co-expressed with Ctf19 and Mcm21 versions", "T3 sequence (looked up) 1": "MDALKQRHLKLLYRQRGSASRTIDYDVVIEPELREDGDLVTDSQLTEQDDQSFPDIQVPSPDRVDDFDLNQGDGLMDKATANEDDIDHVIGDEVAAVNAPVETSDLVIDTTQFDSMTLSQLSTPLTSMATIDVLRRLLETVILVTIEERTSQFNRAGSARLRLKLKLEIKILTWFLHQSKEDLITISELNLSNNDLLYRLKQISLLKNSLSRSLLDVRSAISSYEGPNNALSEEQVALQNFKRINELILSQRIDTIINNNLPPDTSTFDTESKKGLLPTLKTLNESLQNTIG", "T3 sequence (looked up) 2": "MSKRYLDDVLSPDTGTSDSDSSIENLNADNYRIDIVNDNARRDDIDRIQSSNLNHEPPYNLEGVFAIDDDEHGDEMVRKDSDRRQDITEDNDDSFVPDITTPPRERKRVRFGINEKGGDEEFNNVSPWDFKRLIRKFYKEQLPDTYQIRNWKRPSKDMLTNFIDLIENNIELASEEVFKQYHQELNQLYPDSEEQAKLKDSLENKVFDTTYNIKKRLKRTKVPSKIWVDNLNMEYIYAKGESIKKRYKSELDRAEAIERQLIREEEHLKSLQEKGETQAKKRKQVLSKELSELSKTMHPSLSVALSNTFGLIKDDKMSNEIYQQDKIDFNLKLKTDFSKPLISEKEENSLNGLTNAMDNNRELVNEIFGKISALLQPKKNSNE", "experiment": "native MS; nanoflow spectra and tandem mode with collision-induced dissociation in the gas phase (argon); subassemblies stripped of subunits", "conditions": "both partners purified"}, "[4]": {"target": "T4, COMA (K. lactis, full length: Ame1, Ctf19, Mcm21, Okp1) (Kluyveromyces lactis, UniProt Q6CUE5 1-292; Q6CRN7 1-270; Q6CVQ9 1-293; Q6CJY0 1-383)", "T4 construct": "Ame1 of Kluyveromyces lactis; Ctf19 of Kluyveromyces lactis; Mcm21 of Kluyveromyces lactis; Okp1 of Kluyveromyces lactis; copies: + + +", "T4 sequence (looked up) 1": "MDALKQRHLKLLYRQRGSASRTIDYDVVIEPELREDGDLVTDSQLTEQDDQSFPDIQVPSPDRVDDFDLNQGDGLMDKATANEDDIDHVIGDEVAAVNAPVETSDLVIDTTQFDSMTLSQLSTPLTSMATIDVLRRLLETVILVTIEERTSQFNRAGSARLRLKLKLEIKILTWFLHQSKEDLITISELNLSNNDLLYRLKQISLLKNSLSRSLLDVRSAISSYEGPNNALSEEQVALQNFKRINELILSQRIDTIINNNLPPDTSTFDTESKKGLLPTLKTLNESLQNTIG", "T4 sequence (looked up) 2": "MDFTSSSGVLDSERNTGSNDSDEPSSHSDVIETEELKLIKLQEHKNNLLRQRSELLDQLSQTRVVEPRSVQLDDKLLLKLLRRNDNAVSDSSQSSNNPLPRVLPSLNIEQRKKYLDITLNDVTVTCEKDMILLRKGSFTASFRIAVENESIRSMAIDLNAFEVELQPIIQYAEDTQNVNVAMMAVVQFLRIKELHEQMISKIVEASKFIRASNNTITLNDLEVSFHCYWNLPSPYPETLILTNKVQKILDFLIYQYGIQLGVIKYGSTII", "T4 sequence (looked up) 3": "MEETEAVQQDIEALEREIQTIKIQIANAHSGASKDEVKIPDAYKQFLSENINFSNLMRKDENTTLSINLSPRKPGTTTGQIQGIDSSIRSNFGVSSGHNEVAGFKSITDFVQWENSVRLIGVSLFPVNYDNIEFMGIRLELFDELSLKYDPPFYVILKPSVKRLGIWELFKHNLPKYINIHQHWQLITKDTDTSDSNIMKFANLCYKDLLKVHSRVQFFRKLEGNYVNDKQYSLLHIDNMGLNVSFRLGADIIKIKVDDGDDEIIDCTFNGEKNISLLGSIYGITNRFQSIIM", "T4 sequence (looked up) 4": "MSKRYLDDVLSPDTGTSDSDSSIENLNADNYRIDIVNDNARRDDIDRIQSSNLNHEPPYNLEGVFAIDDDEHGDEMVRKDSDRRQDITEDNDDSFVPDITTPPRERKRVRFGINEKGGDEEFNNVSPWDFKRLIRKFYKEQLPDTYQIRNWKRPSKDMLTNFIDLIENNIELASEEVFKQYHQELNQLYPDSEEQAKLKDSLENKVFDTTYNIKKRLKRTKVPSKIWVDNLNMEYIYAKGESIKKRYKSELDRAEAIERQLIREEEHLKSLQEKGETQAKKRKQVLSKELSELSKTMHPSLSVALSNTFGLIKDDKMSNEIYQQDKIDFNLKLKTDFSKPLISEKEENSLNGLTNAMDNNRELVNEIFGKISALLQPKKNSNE", "experiment": "native MS; nanoflow spectra and tandem mode with collision-induced dissociation in the gas phase (argon); subassemblies stripped of subunits", "conditions": "both partners purified"}, "[5]": {"target": "the molecule itself", "experiment": "native MS; nanoflow electrospray of intact assemblies in 200 mM ammonium acetate pH 6.7-7.3 or 7.4; higher micromolar concentrations (COMA ~3 or ~6 uM; COMA-Nkp1-Nkp2 ~3 uM)"}}, "data": [{"binder": "SNEIYQQDKIAANLKLKTDF (synthetic peptide; terminal chemistry not stated)", "note": "[D328A-F329A]", "values": [{"measurement": "Kd", "setting": "[1]", "value": 64, "unit": "µM"}]}, {"binder": "SNEIYQQDKIDANLKLKTDF (synthetic peptide; terminal chemistry not stated)", "note": "[F329A]", "values": [{"measurement": "Kd", "setting": "[1]", "value": 25.3, "unit": "µM"}]}, {"binder": "SNEIYQQDKIDFNLPLKTDF (synthetic peptide; terminal chemistry not stated)", "note": "[K332P]", "values": [{"measurement": "Kd", "setting": "[1]", "value": 9.75, "unit": "µM"}]}, {"binder": "Nkp1 (K. lactis) (natural protein, Kluyveromyces lactis, UniProt Q6CPR4 1-210, looked up, Nkp1 of Kluyveromyces lactis; also called non-essential kinetochore protein 1; HisNkp1; source: E. coli BL21 Rosetta 2(DE3)pLysS, purified) MDLESEIIQLVRQNIRPKFPSLNDEQQARLDNALKYDVNYDILKKELVEYIDDWKRNEYYDVLTNIGDLQRLDLGNMLNGDGVSFPKLHSDLANLPRFRLIDNENEMDQSLLHKYDSLRTRLIEKCRAIELIRSATNTDVNYQDINSMLSVVELRQWRDEIQMEWKELAQNLELILKTWPDLTEEKRSKLLQLIDSSSLKSILHIKDNIE", "values": [{"measurement": "binding result", "setting": "[2]", "value": "binds"}, {"measurement": "binding result", "setting": "[3]", "value": "binds"}, {"measurement": "binding result", "setting": "[4]", "value": "binds"}]}, {"binder": "COMA-Nkp1-Nkp2 (K. lactis, full length) (complex, Kluyveromyces lactis, Ame1 of Kluyveromyces lactis; Ctf19 of Kluyveromyces lactis; Mcm21 of Kluyveromyces lactis; N-terminal SNA residual; Okp1 of Kluyveromyces lactis; Nkp1 of Kluyveromyces lactis; Nkp2 of Kluyveromyces lactis; source: E. coli BL21 Rosetta 2(DE3)pLysS, reconstituted, purified (SEC); not shown: polyhistidine, N-terminal, cleaved; copies: + + + + +) chain 1: MDALKQRHLKLLYRQRGSASRTIDYDVVIEPELREDGDLVTDSQLTEQDDQSFPDIQVPSPDRVDDFDLNQGDGLMDKATANEDDIDHVIGDEVAAVNAPVETSDLVIDTTQFDSMTLSQLSTPLTSMATIDVLRRLLETVILVTIEERTSQFNRAGSARLRLKLKLEIKILTWFLHQSKEDLITISELNLSNNDLLYRLKQISLLKNSLSRSLLDVRSAISSYEGPNNALSEEQVALQNFKRINELILSQRIDTIINNNLPPDTSTFDTESKKGLLPTLKTLNESLQNTIG chain 2: MDFTSSSGVLDSERNTGSNDSDEPSSHSDVIETEELKLIKLQEHKNNLLRQRSELLDQLSQTRVVEPRSVQLDDKLLLKLLRRNDNAVSDSSQSSNNPLPRVLPSLNIEQRKKYLDITLNDVTVTCEKDMILLRKGSFTASFRIAVENESIRSMAIDLNAFEVELQPIIQYAEDTQNVNVAMMAVVQFLRIKELHEQMISKIVEASKFIRASNNTITLNDLEVSFHCYWNLPSPYPETLILTNKVQKILDFLIYQYGIQLGVIKYGSTII chain 3: MEETEAVQQDIEALEREIQTIKIQIANAHSGASKDEVKIPDAYKQFLSENINFSNLMRKDENTTLSINLSPRKPGTTTGQIQGIDSSIRSNFGVSSGHNEVAGFKSITDFVQWENSVRLIGVSLFPVNYDNIEFMGIRLELFDELSLKYDPPFYVILKPSVKRLGIWELFKHNLPKYINIHQHWQLITKDTDTSDSNIMKFANLCYKDLLKVHSRVQFFRKLEGNYVNDKQYSLLHIDNMGLNVSFRLGADIIKIKVDDGDDEIIDCTFNGEKNISLLGSIYGITNRFQSIIM chain 4: MSKRYLDDVLSPDTGTSDSDSSIENLNADNYRIDIVNDNARRDDIDRIQSSNLNHEPPYNLEGVFAIDDDEHGDEMVRKDSDRRQDITEDNDDSFVPDITTPPRERKRVRFGINEKGGDEEFNNVSPWDFKRLIRKFYKEQLPDTYQIRNWKRPSKDMLTNFIDLIENNIELASEEVFKQYHQELNQLYPDSEEQAKLKDSLENKVFDTTYNIKKRLKRTKVPSKIWVDNLNMEYIYAKGESIKKRYKSELDRAEAIERQLIREEEHLKSLQEKGETQAKKRKQVLSKELSELSKTMHPSLSVALSNTFGLIKDDKMSNEIYQQDKIDFNLKLKTDFSKPLISEKEENSLNGLTNAMDNNRELVNEIFGKISALLQPKKNSNE chain 5: MDLESEIIQLVRQNIRPKFPSLNDEQQARLDNALKYDVNYDILKKELVEYIDDWKRNEYYDVLTNIGDLQRLDLGNMLNGDGVSFPKLHSDLANLPRFRLIDNENEMDQSLLHKYDSLRTRLIEKCRAIELIRSATNTDVNYQDINSMLSVVELRQWRDEIQMEWKELAQNLELILKTWPDLTEEKRSKLLQLIDSSSLKSILHIKDNIE chain 6: MLHEVLYKHLDGILVSRLYTEDQFVDLFSRTIPESNTVIASQLYKSYEENDQRIIEKIDKLIDNKLSLIRVELEREQIEDSISLEEVNKLLHSIDDMLQQHLNQLNIELDNKNTKLLKYAMELSDIEAIDTSMYDNVAKLITDMETNQPSS", "values": [{"measurement": "stoichiometry N", "setting": "[5]", "value": 2}]}]}
